Measured values taken from patent US20220153796A1.

biological target: HLA-A*24 (human); assay: UV peptide exchange ELISA

Binder | peptide exchange yield [%]
QYDPTPLTW | > 75
VWSNVTPLKF | > 75
YLEKFYGL | 20 to 50
SYEKVINYL | > 75
RYMKKDYLI | > 75
KYKDYFPVI | > 75
VQQWSVAVF | 50 to 75
PFLPPAACFF | > 75
VWSDVTPLNF | > 75
YYSKSVGFMQW | > 75
STIRGELFFF | 10 to 20
HYTYILEVF | > 75
SYSSCYSF | 50 to 75
KYALLLQDL | > 75
TYNPDFSSL | 50 to 75
YYADKKTFIVL | 50 to 75
DYIGSVEKW | > 75
ILKEDPFLF | 10 to 20
EFTTVLYNF | > 75
SYEVRSTF | 50 to 75
TQPGDWTLF | > 75
KFIISDWRF | > 75
MYPDLSELLM | > 75
SYNGYVFYL | > 75
KTPTNYYLF | > 75

Binder | peptide exchange yield [%]
NYTLYPITF | > 75
YYSIISHTL | > 75
VYPLLSRLYW | > 75
QYLPGWTVLF | > 75
QYQNVLTLW | > 75
SLPDLTPTF | > 75
KSSVIASLLF | 50 to 75
MQPRMFFLF | > 75
KYLEESVWL | > 75
KQMEDGHTLF | 20 to 50
QWPWQASLQF | > 75
KYTNWKAFL | > 75
LIFMLANVF | 10 to 20
QYEPPSAPSTTF | 50 to 75
TLPNTIYRF | > 75
IQMDEPMAF | 10 to 20
AYLSAVGTF | > 75
KYFVPPQLF | > 75
AFPVTSIFHTF | > 75
KYADYFLEV | > 75
VFIDHPVHLKF | > 75
LYISEVRNI | > 75
SYPELVKMVW | > 75
KYALLLQEL | > 75
KYMKIFHKF | > 75

Binder | peptide exchange yield [%]
KYITNLEDL | > 75
LLIKLLQTF | 50 to 75
RWMDQRLVF | > 75
VYMIEPLEL | > 75
YPSIIQEF | > 75
QFAAPLRGIYF | > 75
KYSTTFFMV | 20 to 50
TYLSIFDQL | 50 to 75
NYAENILTL | 50 to 75
LYQEILAQL | > 75
VMPSDSFFF | > 75
NYAIFDEGHML | > 75
VYPASKMFPFI | > 75
IYFRDSSFL | > 75
RYPGKFYRV | > 75
IYQQIIQTY | > 75
IMPEKFEFW | > 75
PYTNYTFDF | > 75
SYMVLAPVF | > 75
RYEGILYTI | > 75
SYIGLPLTL | 50 to 75
VYDQYFITL | > 75
NYIYSISVF | > 75
WYGWHFPEL | 50 to 75
AYTLLGHEFV | 10 to 20
